The values that follow come from article doi:10.1101/2020.05.02.074187 (bioRxiv, 2020).

Common to all, as to experiment: single-molecule AFM dynamic force spectroscopy
Assay [1] deals with T1, E-cadherin endogenously expressed on the apical surface of MDCK cells (canine (endogenous in MDCK), UniProt F1PAA9 157-885).
T1 sequence (looked up): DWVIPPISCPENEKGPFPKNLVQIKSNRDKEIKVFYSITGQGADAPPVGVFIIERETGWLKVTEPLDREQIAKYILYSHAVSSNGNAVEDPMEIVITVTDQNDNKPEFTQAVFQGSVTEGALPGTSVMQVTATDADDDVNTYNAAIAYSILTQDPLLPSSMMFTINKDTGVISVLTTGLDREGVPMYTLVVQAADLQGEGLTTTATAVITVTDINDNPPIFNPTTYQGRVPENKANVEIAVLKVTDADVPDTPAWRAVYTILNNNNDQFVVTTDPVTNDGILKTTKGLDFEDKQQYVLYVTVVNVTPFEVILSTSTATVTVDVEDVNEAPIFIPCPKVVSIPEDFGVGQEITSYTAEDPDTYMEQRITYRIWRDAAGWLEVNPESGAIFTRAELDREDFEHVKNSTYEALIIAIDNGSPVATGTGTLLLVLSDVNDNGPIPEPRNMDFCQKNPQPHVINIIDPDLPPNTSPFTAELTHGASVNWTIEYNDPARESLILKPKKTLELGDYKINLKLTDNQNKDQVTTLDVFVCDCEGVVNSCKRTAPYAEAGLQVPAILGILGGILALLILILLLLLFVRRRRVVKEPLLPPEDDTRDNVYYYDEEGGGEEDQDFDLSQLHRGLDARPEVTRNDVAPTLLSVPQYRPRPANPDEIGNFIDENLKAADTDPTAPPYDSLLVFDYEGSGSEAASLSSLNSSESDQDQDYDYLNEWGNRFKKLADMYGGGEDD

For assay [2], the target named is T1, E-cadherin endogenously expressed on …. This is another data set of the same source.
Assay [3] shares this target. This is another data set of the same source.

Where two headings read alike, the source gives them in different places.

B1: recombinant E-cadherin extracellular region, biotinylated monomer with C-terminal Avi tag (domain or fragment, UniProt F1PAA9 157-712, looked up)
chain: DWVIPPISCPENEKGPFPKNLVQIKSNRDKEIKVFYSITGQGADAPPVGVFIIERETGWLKVTEPLDREQIAKYILYSHAVSSNGNAVEDPMEIVITVTDQNDNKPEFTQAVFQGSVTEGALPGTSVMQVTATDADDDVNTYNAAIAYSILTQDPLLPSSMMFTINKDTGVISVLTTGLDREGVPMYTLVVQAADLQGEGLTTTATAVITVTDINDNPPIFNPTTYQGRVPENKANVEIAVLKVTDADVPDTPAWRAVYTILNNNNDQFVVTTDPVTNDGILKTTKGLDFEDKQQYVLYVTVVNVTPFEVILSTSTATVTVDVEDVNEAPIFIPCPKVVSIPEDFGVGQEITSYTAEDPDTYMEQRITYRIWRDAAGWLEVNPESGAIFTRAELDREDFEHVKNSTYEALIIAIDNGSPVATGTGTLLLVLSDVNDNGPIPEPRNMDFCQKNPQPHVINIIDPDLPPNTSPFTAELTHGASVNWTIEYNDPARESLILKPKKTLELGDYKINLKLTDNQNKDQVTTLDVFVCDCEGVVNSCKRTAPYAEAGLQVPA
modifications: biotin (biotinylated with BirA enzyme)
In general, koff refers to the first-order rate constant of dissociation. Read a high koff as fast dissociation. For the molecule B1, the figures for the koff in assay [1], in assay [2] and in assay [3] were 1.77 s⁻¹, 1.73 s⁻¹ and 2.37 s⁻¹, respectively.
